Source: patent publication US20170298395A1, “AUTOTROPHIC HYDROGEN BACTERIA AND USES THEREOF” (Ohio State Innovation Foundation, priority 2011, published 2017)
Positions count from the first letter of the chain named. Numbers in names are those of the source.

B1: wt CbbR: wild-type CbbR (R. eutropha), 317 amino acids, SEQ ID NO: 1 (protein)
chain: MSSFLRALTLRQLQIFVTVARHASFVRAAEELHLTQPAVSMQVKQLESVVGMALFERVKGQLTLTEPGDRLLHHASRILGEVKDAEEGLQAVKDVEQGSITIGLISTSKYFAPKLLAGFTALHPGVDLRIAEGNRETLLRLLQDNAIDLALMGRPPRELDAVSEPIAAHPHVLVASPRHPLHDAKGFDLQELRHETFLLREPGSGTRTVAEYMFRDHLFTPAKVITLGSNETIKQAVMAGMGISLLSLHTLGLELRTGEIGLLDVAGTPIERIWHVAHMSSKRLSPASESCRAYLLEHTAEFLGREYGGLMPGRRVA
B2: R272Q (protein)
chain: B1 chain with R272Q
B3: G98R (protein)
chain: B1 chain with G98R
B4: A167V (protein)
chain: B1 chain with A167V
B5: A117V (protein)
chain: B1 chain with A117V
B6: P221S/T299I (protein)
chain: B1 chain with P221S, T299I
B7: G205D (protein)
chain: B1 chain with G205D
B8: D148N (protein)
chain: B1 chain with D148N
B9: G125D (protein)
chain: B1 chain with G125D
B10: G125S/V265M (protein)
chain: B1 chain with G125S, V265M
B11: P269S/T299I (protein)
chain: B1 chain with P269S, T299I
B12: T232A (protein)
chain: B1 chain with T232A
B13: E87K/G242S (protein)
chain: B1 chain with E87K, G242S
B14: T232I (protein)
chain: B1 chain with T232I
B15: L79F (protein)
chain: B1 chain with L79F
B16: G205D/R283H (protein)
chain: B1 chain with G205D, R283H
B17: G205D/G118D (protein)
chain: B1 chain with G118D, G205D
B18: E87K (protein)
chain: B1 chain with E87K

System: cbb promoter
Assay type: binding, R. eutropha
Conditions: in the presence of ATP

| Molecule | effect of ATP on CbbR binding to cbb promoter probe (phosphorimage, in words) |
| --- | --- |
| B1 | enhancement of binding |
| B2 | modest enhancement of binding |
| B3 | no enhancement of binding |

Same assay, conditions: in the presence of FBP

| Molecule | effect of FBP on CbbR binding to cbb promoter probe (phosphorimage, in words) |
| --- | --- |
| B1 | no enhancement of binding |

Same assay, conditions: in the presence of NADPH

| Molecule | effect of NADPH on CbbR binding to cbb promoter probe (phosphorimage, in words) |
| --- | --- |
| B1 | modest enhancement of binding |

Same assay, conditions: in the presence of Ru5P

| Molecule | effect of Ru5P on CbbR binding to cbb promoter probe (phosphorimage, in words) |
| --- | --- |
| B1 | no enhancement of binding |

Same assay, conditions: in the presence of RuBP

| Molecule | effect of RuBP on CbbR binding to cbb promoter probe (phosphorimage, in words) |
| --- | --- |
| B1 | enhancement of binding |
| B2 | reduction of binding |
| B3 | modest enhancement of binding |

System: cbbL transcript
Assay type: cell-based, Ralstonia eutropha
Conditions: chemoautotrophic growth, 26 cycles of PCR

| Molecule | increase in transcription over wild type CbbR (RT-PCR, FIG. 22) [fold] |
| --- | --- |
| B4 | 4.1 |

Same assay, conditions: chemoautotrophic growth, OD 0.2

| Molecule | increase in cbb transcript over wild type CbbR (RT-PCR, FIG. 21) [fold] |
| --- | --- |
| B4 | 3.3 |
| B5 | 1.9 |

System: cbb promoter
Assay type: cell-based, Ralstonia eutropha
Conditions: Table 9, chemoautotrophic growth conditions

| Molecule | Chemoautotrophic β-galactosidase activity |
| --- | --- |
| B1 | 3265 nmol/min/mg of protein |
| B6 | 4672 nmol/min/mg of protein |
| B7 | 2634 nmol/min/mg of protein |
| B8 | 5909 nmol/min/mg of protein |
| B4 | 7373 nmol/min/mg of protein |
| B9 | 6777 nmol/min/mg of protein |
| B10 | 6770 nmol/min/mg of protein |
| B11 | 3697 nmol/min/mg of protein |
| B12 | 4626 nmol/min/mg of protein |
| B13 | 4312 nmol/min/mg of protein |
| B14 | 5005 nmol/min/mg of protein |
| B5 | 6793 nmol/min/mg of protein |
| B15 | 6840 nmol/min/mg of protein |

Same assay, conditions: Table 12, chemoautotrophic (induced) growth

| Molecule | Chemoautotrophic β-galactosidase activity |
| --- | --- |
| B1 | 3265 nmol/min/mg of protein |
| B6 | 5312 nmol/min/mg of protein |
| B7 | 2241 nmol/min/mg of protein |
| B16 | 4480 nmol/min/mg of protein |
| B17 | 3939 nmol/min/mg of protein |
| B8 | 6442 nmol/min/mg of protein |
| B4 | 7373 nmol/min/mg of protein |
| B9 | 6777 nmol/min/mg of protein |
| B10 | 6770 nmol/min/mg of protein |
| B18 | 5515 nmol/min/mg of protein |
| B11 | 3879 nmol/min/mg of protein |
| B12 | 5269 nmol/min/mg of protein |
| B13 | 4820 nmol/min/mg of protein |
| B14 | 5005 nmol/min/mg of protein |
| B5 | 6793 nmol/min/mg of protein |
| B15 | 6840 nmol/min/mg of protein |

Same assay, conditions: Table 12, chemoheterotrophic (repressed) growth

| Molecule | Chemoheterotrophic β-galactosidase activity |
| --- | --- |
| B1 | 3 nmol/min/mg of protein |
| B6 | 655 nmol/min/mg of protein |
| B7 | 488 nmol/min/mg of protein |
| B16 | 2311 nmol/min/mg of protein |
| B17 | 1168 nmol/min/mg of protein |
| B8 | 343 nmol/min/mg of protein |
| B4 | 768 nmol/min/mg of protein |
| B9 | 108 nmol/min/mg of protein |
| B10 | 53 nmol/min/mg of protein |
| B18 | 1597 nmol/min/mg of protein |
| B11 | 617 nmol/min/mg of protein |
| B12 | 212 nmol/min/mg of protein |
| B13 | 303 nmol/min/mg of protein |
| B14 | 303 nmol/min/mg of protein |
| B5 | 254 nmol/min/mg of protein |
| B15 | 218 nmol/min/mg of protein |

System: Ralstonia eutropha cbbR deletion reporter strain
Assay type: cell-based
Conditions: chemoautotrophic, CO2/H2/O2 atmosphere, minimal media

| Molecule | Doubling Time [h] |
| --- | --- |
| B7 | 7.8 |
| B13 | 6.0 |
| B15 | 5.6 |

System: RubisCO
Assay type: cell-based, Ralstonia eutropha
Conditions: CA growth conditions

| Molecule | level of RubisCO relative to wild-type CbbR [fold] |
| --- | --- |
| B4 | ~2.7 |
| B5 | 2.2 |

Same assay, conditions: CH growth conditions

| Molecule | level of RubisCO relative to wild-type CbbR [fold] |
| --- | --- |
| B16 | 530 |
| B18 | 330 |

Same assay, conditions: Table 9, chemoautotrophic growth conditions

| Molecule | Chemoautotrophic RubisCO activity |
| --- | --- |
| B1 | 90 nmol/min/mg of protein |
| B6 | 206 nmol/min/mg of protein |
| B7 | 133 nmol/min/mg of protein |
| B8 | 185 nmol/min/mg of protein |
| B4 | 173 nmol/min/mg of protein |
| B9 | 162 nmol/min/mg of protein |
| B10 | 162 nmol/min/mg of protein |
| B11 | 118 nmol/min/mg of protein |
| B12 | 78 nmol/min/mg of protein |
| B13 | 128 nmol/min/mg of protein |
| B14 | 106 nmol/min/mg of protein |
| B5 | 171 nmol/min/mg of protein |
| B15 | 209 nmol/min/mg of protein |

Same assay, conditions: Table 12, chemoautotrophic (induced) growth

| Molecule | Chemoautotrophic RubisCO activity |
| --- | --- |
| B1 | 139 nmol/min/mg of protein |
| B6 | 212 nmol/min/mg of protein |
| B7 | 54 nmol/min/mg of protein |
| B16 | 115 nmol/min/mg of protein |
| B17 | 148 nmol/min/mg of protein |
| B8 | 242 nmol/min/mg of protein |
| B4 | 370 nmol/min/mg of protein |
| B9 | 298 nmol/min/mg of protein |
| B10 | 259 nmol/min/mg of protein |
| B18 | 305 nmol/min/mg of protein |
| B11 | 158 nmol/min/mg of protein |
| B12 | 140 nmol/min/mg of protein |
| B13 | 198 nmol/min/mg of protein |
| B14 | 123 nmol/min/mg of protein |
| B5 | 314 nmol/min/mg of protein |
| B15 | 304 nmol/min/mg of protein |

Same assay, conditions: Table 12, chemoheterotrophic (repressed) growth

| Molecule | Chemoheterotrophic RubisCO activity |
| --- | --- |
| B1 | 0.1 nmol/min/mg of protein |
| B6 | 16 nmol/min/mg of protein |
| B7 | 10 nmol/min/mg of protein |
| B16 | 53 nmol/min/mg of protein |
| B17 | 30 nmol/min/mg of protein |
| B8 | 8 nmol/min/mg of protein |
| B4 | 15 nmol/min/mg of protein |
| B9 | 3 nmol/min/mg of protein |
| B10 | 2 nmol/min/mg of protein |
| B18 | 33 nmol/min/mg of protein |
| B11 | 14 nmol/min/mg of protein |
| B12 | 4 nmol/min/mg of protein |
| B13 | 6 nmol/min/mg of protein |
| B14 | 5 nmol/min/mg of protein |
| B5 | 6 nmol/min/mg of protein |
| B15 | 4 nmol/min/mg of protein |
